B1: H9N2-NP-Nb5-HRP (VHH)
VHH: ESGGGLVQPGGSLRLSCAASGFPFSDYDMNWARQAPGKELEDVSAISSGGTYTYYADSVKGRFTISRDNAKNTLYLQLNSLQTEDTAMYYCGRGWTSGYKSRGQGTQVTVSS
B2: H9N2-NP-Nb16-HRP (VHH)
VHH: ESGGGSVQAGGSLRLSCAASGYTYSAYCMGWFRQAPGKEREEVASIDSDFGTNYADSVKGRFTISKDNPKNTLYLQMNNLKAEDTAMYYCAALKYSSSLCLDALPSRANYWGQGTQVTVSS
B3: H9N2-NP-Nb42-HRP (VHH)
VHH: ESGGESVQAGGSLRLSCATSGFTYNRSYCMAWFRQVLGKEREGVAVIDRVGGSTYYADSVKGRFTVSQDNAKTTLYLQMNSLTPEDTAMYYCAAVSTLMTTCQGLLAGHSQRYAYWGQGTQVTVSS
B4: H9N2-NP-Nb53-HRP (VHH)
VHH: ESGGGSVQAGGSLRLSCAASGYTFSNVYMGWFRQAPGKEREGVAAIDRDGRTTYGDSVKGRFTISQDNAKNILYLQMSSLKPEDTATYYCAADPGYVELISEPLAGIWYRYWGQGTQVTVSS
B5: H9N2-NP-Nb18-HRP (VHH)
VHH: ESGGGSVQAGGSLRLSCAASHTYGTYAMAWFRQAPGEEREGVAAIDSDGETIYADSVKGRFTISRDNAKNILYLQMNSLKPEDTAMYYCAEDLRGVWYGRLELRPGRFTYWGQGTQVTVSS

Assays:
Test in all cases: ELISA
Conditions in all cases: one partner purified
[1] = target: H9N2-NP fragment 1 to 1182 bp (N394 amino acids) (Influenza A virus …, UniProt W5RGA6)
[2] = target: H1N1-NP (nucleoprotein of A/Guangzhou/01/2009 (H1N1)) (Influenza A virus A/Guangzhou/01/2009 …, UniProt C3W5S2, strain)
[3] = target: H9N2-NP fragment 1 to 1215 bp (N405 amino acids) (Influenza A virus …, UniProt W5RGA6)
[4] = target: H9N2-NP fragment 1 to 1308 bp (N436 amino acids) (Influenza A virus …, UniProt W5RGA6)
[5] = target: H9N2-NP fragment 1 to 1167 bp (N389 amino acids) (Influenza A virus …, UniProt W5RGA6)
[6] = target: IBV-NP (nucleoprotein of influenza B virus B/Yamagata/16/1988) (Influenza B virus B/Yamagata/16/1988, UniProt Q82662, strain)

| Binder | binding result [1] | binding result [2] | binding result [3] | binding result [4] | binding result [5] | binding result [6] |
| --- | --- | --- | --- | --- | --- | --- |
| B1 | binds | binds | binds | binds | binds | no binding |
| B2 | – | binds | – | – | – | no binding |
| B3 | – | binds | – | – | – | no binding |
| B4 | – | binds | – | – | – | no binding |
| B5 | – | binds | – | – | – | no binding |

Source: publication PMC9763686 (The Journal of Biological Chemistry, 2022)
